# B1: CHIKV nsP1 mutant (H37A; amino acids 1 to 535) with internal StrepII-3XFLAG (enzyme)
# chain: MDPVYVDIDADSAFLKALQRAYPMFEVEPRQVTPNDAANARAFSHLAIKLIEQEIDPDSTILDIGSAPARRMMSDRKYHCVCPMRSAEDPERLANYARKLASAAGKVLDRNISGKIGDLQAVMAVPDTETPTFCLHTDVSCRQRADVAIYQDVYAVHAPTSLYHQAIKGVRLAYWVGFDTTPFMYNAMAGAYPSYSTNWADEQVLKAKNIGLCSTDLTEGRRGKLSIMRGKKLEPCDRVLFSVGSTLYPESRKLLKSWHLPSVFHLKGKLSFTCRCDTVVSCEGYVVKRITMSPGLYGKTTGYAVTHHADGFLMCKTTDTVDGERVSFSVCTYVPATICDQMTGILATEVTPEDAQKLLVGLNQRIVVNGRTQRNTNTMKNYMIPVVAQAFSKWAKECRKDMEDEKLLGVRERTLTCCCLWAFKKQKTHTVYKRPDTQSIQKVQAEFDSFVVPSLWSSGLSIPLRTRIKWLLSKVPKTDLTPYSGDAQEARDAEKEAEEEREAELTLEALPPLQAAQEDVQVEIDVEQLEDRAGA
# notes: nonstructural protein 1 (nsP1) of chikungunya virus, amino acids 1 to 535 of the nonstructural polyprotein; also called nsP1 ring; nsP1 dodecameric ring; not shown: StrepII, internal (after residue 516), kept; copies: 12
# B2: ONNV nsP4, full length (amino acids 1904 to 2514) (enzyme)
# chain: IFSSDTGQGHLQQKSVRQTTLPVNIVEEVHEEKCYPPKLDEIKEQLLLKRLQESASTANRSRYQSRKVENMKATIIHRLKEGCRLYLASDTPRVPSYRITYPAPVYSPSISIKLNNPETAVAVCNEFLARNYPTVASYQVTDEYDAYLDMVDGSESCLDRATFNPSKLRSYPKQHSYHAPTIRSAVPSPFQNTLQNVLAAATKRNCNVTQMRELPTMDSAVFNVECFKKYACNQEYWREFASSPIRVTTENLTMYVTKLKGPKAAALFAKTHNLLPLQEVPMDRFTMDMKRDVKVTPGTKHTEERPKVQVIQAAEPLATAYLCGIHRELVRRLNAVLLPNVHTLFDMSAEDFDAIISTHFKPGDAVLETDIASFDKSQDDSLALTAMMLLEDLGVDQPILDLIEAAFGEISSCHLPTGTRFKFGAMMKSGMFLTLFVNTLLNITIASRVLEERLTTSACAAFIGDDNIIHGVVSDALMAARCATWMNMEVKIIDAVVSEKAPYFCGGFILHDTVTGTSCRVADPLKRLFKLGKPLAAGDEQDEDRRRALADEVTRWQRTGLITELEKAVYSRYEVQGITAVITSMATFASSKENFKKLRGPVVTLYGGPK
# notes: Contact residues in the text (D219, E392, D393, D402, E405; NTD 1 to 105) count on nsP4 itself; also called o'nyong-nyong virus nsP4; nsP4 RdRp
# B3: CHIKV nsP2, full length (amino acids 536 to 1333) (enzyme)
# chain: GIIETPRGAIKVTAQPTDHVVGEYLVLSPQTVLRSQKLSLIHALAEQVKTCTHSGRAGRYAVEAYDGRVLVPSGYAISPEDFQSLSESATMVYNEREFVNRKLHHIAMHGPALNTDEESYELVRAERTEHEYVYDVDQRRCCKKEEAAGLVLVGDLTNPPYHEFAYEGLKIRPACPYKIAVIGVFGVPGSGKSAIIKNLVTRQDLVTSGKKENCQEITTDVMRQRGLEISARTVDSLLLNGCNRPVDVLYVDEAFACHSGTLLALIALVRPRQKVVLCGDPKQCGFFNMMQMKVNYNHNICTQVYHKSISRRCTLPVTAIVSSLHYEGKMRTTNEYNKPIVVDTTGSTKPDPGDLVLTCFRGWVKQLQIDYRGHEVMTAAASQGLTRKGVYAVRQKVNENPLYASTSEHVNVLLTRTEGKLVWKTLSGDPWIKTLQNPPKGNFKATIKEWEVEHASIMAGICSHQMTFDTFQNKANVCWAKSLVPILETAGIKLNDRQWSQIIQAFKEDKAYSPEVALNEICTRMYGVDLDSGLFSKPLVSVYYADNHWDNRPGGKMFGFNPEAASILERKYPFTKGKWNINKQICVTTRRIEDFNPTTNIIPANRRLPHSLVAEHRPVKGERMEWLVNKINGHHVLLVSGCSLALPTKRVTWVAPLGVRGADYTYNLELGLPATLGRYDLVVINIHTPFRIHHYQQCVDHAMKLQMLGGDSLRLLKPGGSLLIRAYGYADRTSERVICVLGRKFRSSRALKPPCVTSNTEMFFLFSNFDNGRRNFTTHVMNNQLNAAFVGQATRAGC
# notes: nonstructural protein 2 (nsP2) of chikungunya virus, full length, amino acids 536 to 1333 of the nonstructural polyprotein; Contact residues in the text (R56, R59, Y60, R101; nsP2h 1 to 465) count on nsP2 itself; The His6-SUMO tag is called cleavable; Only the helicase region is built in the cryo-EM model; also called nsP2 helicase-protease
# Columns and labels:
# Test in all cases: cryo-EM structure; single-particle cryo-EM of the reconstituted nsP1 + 2 + 4 RC core mixed with T2 RNA and NTP in 1x buffer Z at 1:10:100 molar ratio; C1, 2.8 Å
# [1] = biological target: the molecule itself
# [2] = biological target: B1; conditions: both partners purified
# [3] = biological target: B2; conditions: both partners purified
binder,measurement,setting,value
B1,stoichiometry N,[1],12
B2,stoichiometry N,[2],12 nsP1 per nsP4
B3,stoichiometry N,[3],1 nsP2 per nsP4

# Reference: PMC9710867, “Molecular architecture of the Chikungunya virus replication complex” (Science Advances, 2022)
